Measurements from US20120058100A1, “MODULATION OF DRUG RELEASE RATE FROM ELECTROSPUN FIBERS” (priority 2006, published 2012).

Assay: Release of FITC-BSA from emulsion-electrospun PU, PLA and co-spun fibers in PBS
Assay type: physicochemical
Description: Polymers were dissolved in organic solvent and emulsified with a H2O/Poly(vinyl alcohol) mixture with the molecule to be released dispersed in the aqueous phase. Polyurethane (PU) was dissolved at 6 wt % in a mixture of chloroform and tetrahydrofuran. PLA was dissolved at 2 wt % in chloroform. Drugs were loaded into the PVA/Water mixture with aqueous volume fractions ranging from 10-20 vol %. Emulsions were loaded into plastic syringe fitted with a blunt tip 18-gauge needle and placed into a syringe pump.
Circular discs were punched out from the aluminum foil and polymer fibers removed from Al-backing. Samples placed in centrifuge tubes individual glass vials with PBS. Samples degraded in at room temperature (20° C.) on a rotisserie. The buffer was sampled at given intervals. Depending on release molecule, different spectrophotometric techniques were used to measure release profiles.
The concentration was determined fluorometrically by measuring […] at λ=495 nm. Samples were placed in 10 ml of PBS and 200 μl of buffer was used to run the assay and not replaced (total amount withdrawn from tube was less than 40% of total volume). Average concentration plotted over 360 hour time course (n=3).

## FITC-BSA: fluorescein isothiocyanate conjugated albumin, a model protein
PU and PLA fibers
  duration over which release can be achieved: ≥ 15 days
co-spun PLA and PU fibers
  release from meshes of co-spun PLA and PU fibers relative to pure PLA or PU meshes: intermediate manner
Electrospun fibers
  release rate relative to doxycycline: much slower release rates
